Experimental data as given in US20260275317A1, “CHIMERIC ENDOLYSINS WITH ACTIVITY AGAINST STREPTOCOCCI AND STAPHYLOCOCCI” (UNIVERSITEIT GENT, priority 2023, published 2026).

What was measured:
[1] = system: stationary phase S. uberis; test: Turbidity reduction assay (TRA), S. uberis; assay type: cell-based, Streptococcus uberis; settings: 0.3 μM
Experimental: (§1) Concerning the time killing assay, an overnight bacterial culture was diluted 1:10 for S. uberis, S. agalactiae-& dysgalactiae or 1:100 for S. aureus in PBS or UHT-pasteurized whole cow's milk. A volume of 10 μL thereof was combined with an equal amount of chimeric endolysin in PBS (or only PBS as negative control) in triplicate and incubated in a covered 96-well microtiter plate at 37° C. for 2 h. The dose was low (i.e. 0.25 μM), but this was chosen to differentiate between less and better performing variants, consequently allowing a ranking. Finally, these fractions were serially diluted 1:10 in PBS. 5 μL of each fraction was spotted on TSA or BHI-agar and incubated overnight at 37° C. The following day, colony forming units (CFU) were counted and converted to CFU/mL to calculate logarithmic reductions in comparison with the negative control. The relative scores were calculated by dividing the observed logarithmic reduction for each endolysin by the maximal reduction observed for that specific condition and strain. Next, this value was divided by the number of conditions and strains tested (i.e., 8=4 bacterial strains×2 conditions (PBS/UHT-milk)). As such, the best performing candidate in each individual assay received a score of 0.125 (=(1/1)/8). […] Turbidity reduction assays were performed by combining 100 μL of overnight grown bacterial cells with an equal volume of purified enzyme at the desired concentration. Bacterial cells were washed with PBS and resuspended in a 1:1 ratio with enzyme to an OD600 of approximately 1.0. Next, the OD600 was measured using a Tecan infinite 200 PRO plate reader (Tecan, Switzerland) every 15 seconds at 37° C., shaking the 96-well plate between each measurement.
(§2) Time killing and turbidity reduction assays were performed as previously described in 1.3.1.

[2] = system: S. uberis, S. aureus, S. agalactiae and S. dysgalactiae; test: 2 h time killing assay in PBS and UHT-milk, relative in vitro scoring; assay type: cell-based; settings: 0.25 μM
Experimental: as §1, with “The dose was low (i.e. 0.25 μM), but this was chosen to differentiate between less and better performing variants, consequently allowing a ranking.” left out
Stationary phase S. uberis 0140J or S. aureus N305 and one randomly chosen clinical isolate of S. uberis, S. aureus, S. agalactiae and S. dysgalactiae were challenged with a final concentration of 0.25 μM endolysin in a 2 h time killing assay (TKA) in both phosphate buffered saline (PBS) and ultra-high temperature pasteurized whole cow's milk (UHT-milk).

[3] = system: S. aureus; test: TRA and TKA against S. aureus mastitis isolates; assay type: cell-based, Staphylococcus aureus; settings: S. aureus (sub)clinical isolates
Experimental: Concerning the time killing assay, an overnight bacterial culture was diluted 1:10 for S. uberis, S. agalactiae-& dysgalactiae or 1:100 for S. aureus in PBS or UHT-pasteurized whole cow's milk. A volume of 10 μL thereof was combined with an equal amount of chimeric endolysin in PBS (or only PBS as negative control) in triplicate and incubated in a covered 96-well microtiter plate at 37° C. for 2 h. The dose was low (i.e. 0.25 μM), but this was chosen to differentiate between less and better performing variants, consequently allowing a ranking. Finally, these fractions were serially diluted 1:10 in PBS. 5 μL of each fraction was spotted on TSA or BHI-agar and incubated overnight at 37° C. The following day, colony forming units (CFU) were counted and converted to CFU/mL to calculate logarithmic reductions in comparison with the negative control. The relative scores were calculated by dividing the observed logarithmic reduction for each endolysin by the maximal reduction observed for that specific condition and strain. Next, this value was divided by the number of conditions and strains tested (i.e., 8=4 bacterial strains×2 conditions (PBS/UHT-milk)). […] Next, the OD600 was measured using a Tecan infinite 200 PRO plate reader (Tecan, Switzerland) every 15 seconds at 37° C., shaking the 96-well plate between each measurement. […]

[4] = system: stationary phase S. uberis; test: Time killing assay (TKA), S. uberis; assay type: cell-based, Streptococcus uberis; settings: 0.3 μM; for ΔLog10 (CFU/mL): 1 h
Experimental: as §1, with “A volume of 10 μL thereof was combined with an equal amount of chimeric endolysin in PBS (or only PBS as negative control) in triplicate and incubated in a covered 96-well microtiter plate at 37° C. for 2 h. The dose was low (i.e. 0.25 μM), but this was chosen to differentiate between less and better performing variants, consequently allowing a ranking.” left out
as §2
Time killing assays were performed as previously described in 1.3.1.

[5] = Clinical S. uberis 1 (Unknown ST and GCC)
[6] = Clinical S. uberis 2 (Unknown ST, GCC 5)
[7] = Clinical S. uberis 3 (Unknown ST, GCC 5)
[8] = Clinical S. uberis 4 (ST 815, GCC 143)
[9] = Clinical S. uberis 5 (ST 944, GCC 5)
[10] = Subclinical S. uberis 1 (ST 808, GCC 143)
[11] = Subclinical S. uberis 2 (Unknown ST and GCC)
[12] = Subclinical S. uberis 3 (Unknown ST, GCC 5)
[13] = Subclinical S. uberis 4 (Unknown ST and GCC)

B1: NC2: chimeric endolysin SEQ ID NO: 14; CPP + PlySs2 CHAP + PlySs2 SH3_5 + PlySs9 amidase_3 (protein)
chain: MRRRRRRRRGATTVNEALNNVRAQVGSGVSVGNGECYALASWYERMISPDATVGLGAGVGWVSGAIGDTISAKNIGSSYNWQANGWTVSTSGPFKAGQIVTLGATPGNPYGHVVIVEAVDGDRLTILEQNYGGKRYPVRNYYSAASYRQQVVHYITPPGTVAQSAPNLAGAGSRSYRETGTMTVTVDALNVRRAPNTSGEIVAVYKRGESFDYDTVIIDVNGYVWVSYIGGSGKRNYVATGATKDGKRFGNAWGTFKGSGKHLVICGHGQGRTGYDPGAVNAKLGITEAGKVRELSKLMSKYSGQQIDFITEQNVYDYRSITSIGKGYDSITELHFNAFNGSAKGTEVLIQSSLEADKEDMAILSLLSRYFQNRGIKKVDWLYNANQAASRGYTYRLVEIAFIDNEQDMAIFENKKEDIAKGLVSAITGVEVKTIVPSPPSSTVGSSGTPSKSIYLVGDSLRVLPHATHYQTGQKIANWVKGRTYKILQVKNVHQSNSKRAYLLDGIKSWVLEQDVEGTTKGHSKYHHHHHH
lysis speed (ΔOD600/min)/μM [1, 5]: 0.03 (ΔOD600/min)/μM
ΔOD600 ([1]; Clinical S. uberis 1 (Unknown ST and GCC), 1 h): 0.32
lysis speed (ΔOD600/min)/μM [1, 6]: 0.08 (ΔOD600/min)/μM
ΔOD600 ([1]; Clinical S. uberis 2 (Unknown ST, GCC 5), 1 h): 0.54
lysis speed (ΔOD600/min)/μM [1, 7]: 0.22 (ΔOD600/min)/μM
ΔOD600 ([1]; Clinical S. uberis 3 (Unknown ST, GCC 5), 1 h): 0.72
lysis speed (ΔOD600/min)/μM [1, 8]: 0.04 (ΔOD600/min)/μM
ΔOD600 ([1]; Clinical S. uberis 4 (ST 815, GCC 143), 1 h): 0.30
lysis speed (ΔOD600/min)/μM [1, 9]: 0.12 (ΔOD600/min)/μM
ΔOD600 ([1]; Clinical S. uberis 5 (ST 944, GCC 5), 1 h): 0.63
ΔOD600 ([1]; S. uberis 0140J): 0.53±0.01
lysis speed (ΔOD600/min)/μM [1, 10]: 0.18 (ΔOD600/min)/μM
ΔOD600 ([1]; Subclinical S. uberis 1 (ST 808, GCC 143), 1 h): 0.65
lysis speed (ΔOD600/min)/μM [1, 11]: 0.06 (ΔOD600/min)/μM
ΔOD600 ([1]; Subclinical S. uberis 2 (Unknown ST and GCC), 1 h): 0.59
lysis speed (ΔOD600/min)/μM [1, 12]: 0.18 (ΔOD600/min)/μM
ΔOD600 ([1]; Subclinical S. uberis 3 (Unknown ST, GCC 5), 1 h): 0.67
lysis speed (ΔOD600/min)/μM [1, 13]: 0.15 (ΔOD600/min)/μM
ΔOD600 ([1]; Subclinical S. uberis 4 (Unknown ST and GCC), 1 h): 0.66
ranking by cumulative relative in vitro score [2]: overall best performing candidates
enzymatic (ΔOD600) and killing (Δ log10) activity, NC2 pairwise versus NC5 [3]: significantly (p<0.001) improved enzymatic (i.e., ΔOD600) and killing (i.e., Δ log10) activity
ΔLog10 (CFU/mL) [4, 5]: 0.00 Log10 (CFU/mL)
ΔLog10 (CFU/mL) [4, 6]: 4.16 Log10 (CFU/mL)
ΔLog10 (CFU/mL) [4, 7]: 1.66 Log10 (CFU/mL)
ΔLog10 (CFU/mL) [4, 8]: 0.01 Log10 (CFU/mL)
ΔLog10 (CFU/mL) [4, 9]: 0.86 Log10 (CFU/mL)
Δ log10 ([4]; S. uberis 0140J): 0.90±0.03 log10
ΔLog10 (CFU/mL) [4, 10]: 2.84 Log10 (CFU/mL)
ΔLog10 (CFU/mL) [4, 11]: 1.02 Log10 (CFU/mL)
ΔLog10 (CFU/mL) [4, 12]: 1.31 Log10 (CFU/mL)
ΔLog10 (CFU/mL) [4, 13]: 2.84 Log10 (CFU/mL)
